In patent US9957297B2, “Template-fixed peptidomimetics as inhibitors of FPR1” (POLYPHOR AG, priority 2011, dated 2018):
Bridges are numbered along the chain shown (N, C = ends). [ ]: non-standard residue; d: D form. Dab = NCC[C@H](N)C(=O)O

T1: Formyl-Peptide Receptor 1 (UniProt P21462 1-350, limits assumed)
T1 sequence (looked up): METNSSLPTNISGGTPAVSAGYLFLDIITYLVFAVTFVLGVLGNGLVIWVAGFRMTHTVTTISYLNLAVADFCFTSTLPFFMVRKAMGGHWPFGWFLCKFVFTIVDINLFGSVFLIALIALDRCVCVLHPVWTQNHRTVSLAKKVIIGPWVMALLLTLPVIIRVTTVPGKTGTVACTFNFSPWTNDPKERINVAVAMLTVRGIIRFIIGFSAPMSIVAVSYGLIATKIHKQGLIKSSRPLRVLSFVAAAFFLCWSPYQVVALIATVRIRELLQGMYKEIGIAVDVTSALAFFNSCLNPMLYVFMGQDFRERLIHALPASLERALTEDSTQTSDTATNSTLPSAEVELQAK


Biological target: T1, Formyl-Peptide Receptor 1
Test: cell-based or functional assay

Binder	β-Arrestin IC50
cyclo(EHKCHG[dP]WTICYEK[dP]P) (disulfide 4-11; SMILES CC[C@H](C)[C@@H]1NC(=O)[C@H]([C@@H](C)O)NC(=O)[C@H](Cc2c[nH]c3ccccc23)NC(=O)[C@H]2CCCN2C(=O)CNC(=O)[C@H](Cc2c[nH]cn2)NC(=O)[C@@H]2CSSC[C@H](NC1=O)C(=O)N[C@@H](Cc1ccc(O)cc1)C(=O)N[C@@H](CCC(=O)O)C(=O)N[C@@H](CCCCN)C(=O)N1CCC[C@@H]1C(=O)N1CCC[C@H]1C(=O)N[C@@H](CCC(=O)O)C(=O)N[C@@H](Cc1c[nH]cn1)C(=O)N[C@@H](CCCCN)C(=O)N2) [cyclo(-Glu-His-Lys-Cys-His-Gly-^DPro-Trp-Thr-Ile-Cys-Tyr-Glu-Lys-^DPro-Pro-)]	165 nM
cyclo(YHWCWG[dP]WTICYQK[dP]P) (disulfide 4-11; SMILES CC[C@H](C)[C@@H]1NC(=O)[C@H]([C@@H](C)O)NC(=O)[C@H](Cc2c[nH]c3ccccc23)NC(=O)[C@H]2CCCN2C(=O)CNC(=O)[C@H](Cc2c[nH]c3ccccc23)NC(=O)[C@@H]2CSSC[C@H](NC1=O)C(=O)N[C@@H](Cc1ccc(O)cc1)C(=O)N[C@@H](CCC(N)=O)C(=O)N[C@@H](CCCCN)C(=O)N1CCC[C@@H]1C(=O)N1CCC[C@H]1C(=O)N[C@@H](Cc1ccc(O)cc1)C(=O)N[C@@H](Cc1c[nH]cn1)C(=O)N[C@@H](Cc1c[nH]c3ccccc13)C(=O)N2) [cyclo(-Tyr-His-Trp-Cys-Trp-Gly-^DPro-Trp-Thr-Ile-Cys-Tyr-Gln-Lys-^DPro-Pro-)]	89 nM
cyclo(YHWCHG[dP]WTICYQK[dP]P) (disulfide 4-11; SMILES CC[C@H](C)[C@@H]1NC(=O)[C@H]([C@@H](C)O)NC(=O)[C@H](Cc2c[nH]c3ccccc23)NC(=O)[C@H]2CCCN2C(=O)CNC(=O)[C@H](Cc2c[nH]cn2)NC(=O)[C@@H]2CSSC[C@H](NC1=O)C(=O)N[C@@H](Cc1ccc(O)cc1)C(=O)N[C@@H](CCC(N)=O)C(=O)N[C@@H](CCCCN)C(=O)N1CCC[C@@H]1C(=O)N1CCC[C@H]1C(=O)N[C@@H](Cc1ccc(O)cc1)C(=O)N[C@@H](Cc1c[nH]cn1)C(=O)N[C@@H](Cc1c[nH]c3ccccc13)C(=O)N2) [cyclo(-Tyr-His-Trp-Cys-His-Gly-^DPro-Trp-Thr-Ile-Cys-Tyr-Gln-Lys-^DPro-Pro-)]	177 nM
cyclo(YHTCHG[dP]WTICYQK[dP]P) (disulfide 4-11; SMILES CC[C@H](C)[C@@H]1NC(=O)[C@H]([C@@H](C)O)NC(=O)[C@H](Cc2c[nH]c3ccccc23)NC(=O)[C@H]2CCCN2C(=O)CNC(=O)[C@H](Cc2c[nH]cn2)NC(=O)[C@@H]2CSSC[C@H](NC1=O)C(=O)N[C@@H](Cc1ccc(O)cc1)C(=O)N[C@@H](CCC(N)=O)C(=O)N[C@@H](CCCCN)C(=O)N1CCC[C@@H]1C(=O)N1CCC[C@H]1C(=O)N[C@@H](Cc1ccc(O)cc1)C(=O)N[C@@H](Cc1c[nH]cn1)C(=O)N[C@@H]([C@@H](C)O)C(=O)N2) [cyclo(-Tyr-His-Thr-Cys-His-Gly-^DPro-Trp-Thr-Ile-Cys-Tyr-Gln-Lys-^DPro-Pro-)]	178 nM
cyclo(YHKCWG[dP]WTICYQK[dP]P) (disulfide 4-11; SMILES CC[C@H](C)[C@@H]1NC(=O)[C@H]([C@@H](C)O)NC(=O)[C@H](Cc2c[nH]c3ccccc23)NC(=O)[C@H]2CCCN2C(=O)CNC(=O)[C@H](Cc2c[nH]c3ccccc23)NC(=O)[C@@H]2CSSC[C@H](NC1=O)C(=O)N[C@@H](Cc1ccc(O)cc1)C(=O)N[C@@H](CCC(N)=O)C(=O)N[C@@H](CCCCN)C(=O)N1CCC[C@@H]1C(=O)N1CCC[C@H]1C(=O)N[C@@H](Cc1ccc(O)cc1)C(=O)N[C@@H](Cc1c[nH]cn1)C(=O)N[C@@H](CCCCN)C(=O)N2) [cyclo(-Tyr-His-Lys-Cys-Trp-Gly-^DPro-Trp-Thr-Ile-Cys-Tyr-Gln-Lys-^DPro-Pro-)]	71 nM
cyclo(YHICHG[dP]WTICYQK[dP]P) (disulfide 4-11; SMILES CC[C@H](C)[C@@H]1NC(=O)[C@H](Cc2c[nH]cn2)NC(=O)[C@H](Cc2ccc(O)cc2)NC(=O)[C@@H]2CCCN2C(=O)[C@H]2CCCN2C(=O)[C@H](CCCCN)NC(=O)[C@H](CCC(N)=O)NC(=O)[C@H](Cc2ccc(O)cc2)NC(=O)[C@@H]2CSSC[C@H](NC1=O)C(=O)N[C@@H](Cc1c[nH]cn1)C(=O)NCC(=O)N1CCC[C@@H]1C(=O)N[C@@H](Cc1c[nH]c3ccccc13)C(=O)N[C@@H]([C@@H](C)O)C(=O)N[C@@H]([C@@H](C)CC)C(=O)N2) [cyclo(-Tyr-His-Ile-Cys-His-Gly-^DPro-Trp-Thr-Ile-Cys-Tyr-Gln-Lys-^DPro-Pro-)]	35 nM
cyclo(YHECHG[dP]WTICYQK[dP]P) (disulfide 4-11; SMILES CC[C@H](C)[C@@H]1NC(=O)[C@H]([C@@H](C)O)NC(=O)[C@H](Cc2c[nH]c3ccccc23)NC(=O)[C@H]2CCCN2C(=O)CNC(=O)[C@H](Cc2c[nH]cn2)NC(=O)[C@@H]2CSSC[C@H](NC1=O)C(=O)N[C@@H](Cc1ccc(O)cc1)C(=O)N[C@@H](CCC(N)=O)C(=O)N[C@@H](CCCCN)C(=O)N1CCC[C@@H]1C(=O)N1CCC[C@H]1C(=O)N[C@@H](Cc1ccc(O)cc1)C(=O)N[C@@H](Cc1c[nH]cn1)C(=O)N[C@@H](CCC(=O)O)C(=O)N2) [cyclo(-Tyr-His-Glu-Cys-His-Gly-^DPro-Trp-Thr-Ile-Cys-Tyr-Gln-Lys-^DPro-Pro-)]	321 nM
cyclo(YHACHG[dP]WTICYWK[dP]P) (disulfide 4-11; SMILES CC[C@H](C)[C@@H]1NC(=O)[C@H]([C@@H](C)O)NC(=O)[C@H](Cc2c[nH]c3ccccc23)NC(=O)[C@H]2CCCN2C(=O)CNC(=O)[C@H](Cc2c[nH]cn2)NC(=O)[C@@H]2CSSC[C@H](NC1=O)C(=O)N[C@@H](Cc1ccc(O)cc1)C(=O)N[C@@H](Cc1c[nH]c3ccccc13)C(=O)N[C@@H](CCCCN)C(=O)N1CCC[C@@H]1C(=O)N1CCC[C@H]1C(=O)N[C@@H](Cc1ccc(O)cc1)C(=O)N[C@@H](Cc1c[nH]cn1)C(=O)N[C@@H](C)C(=O)N2) [cyclo(-Tyr-His-Ala-Cys-His-Gly-^DPro-Trp-Thr-Ile-Cys-Tyr-Trp-Lys-^DPro-Pro-)]	36 nM
cyclo(YHACWG[dP]WTICYEK[dP]P) (disulfide 4-11; SMILES CC[C@H](C)[C@@H]1NC(=O)[C@H]([C@@H](C)O)NC(=O)[C@H](Cc2c[nH]c3ccccc23)NC(=O)[C@H]2CCCN2C(=O)CNC(=O)[C@H](Cc2c[nH]c3ccccc23)NC(=O)[C@@H]2CSSC[C@H](NC1=O)C(=O)N[C@@H](Cc1ccc(O)cc1)C(=O)N[C@@H](CCC(=O)O)C(=O)N[C@@H](CCCCN)C(=O)N1CCC[C@@H]1C(=O)N1CCC[C@H]1C(=O)N[C@@H](Cc1ccc(O)cc1)C(=O)N[C@@H](Cc1c[nH]cn1)C(=O)N[C@@H](C)C(=O)N2) [cyclo(-Tyr-His-Ala-Cys-Trp-Gly-^DPro-Trp-Thr-Ile-Cys-Tyr-Glu-Lys-^DPro-Pro-)]	68 nM
cyclo(YHACWG[dP]WTICYWK[dP]P) (disulfide 4-11; SMILES CC[C@H](C)[C@@H]1NC(=O)[C@H]([C@@H](C)O)NC(=O)[C@H](Cc2c[nH]c3ccccc23)NC(=O)[C@H]2CCCN2C(=O)CNC(=O)[C@H](Cc2c[nH]c3ccccc23)NC(=O)[C@@H]2CSSC[C@H](NC1=O)C(=O)N[C@@H](Cc1ccc(O)cc1)C(=O)N[C@@H](Cc1c[nH]c3ccccc13)C(=O)N[C@@H](CCCCN)C(=O)N1CCC[C@@H]1C(=O)N1CCC[C@H]1C(=O)N[C@@H](Cc1ccc(O)cc1)C(=O)N[C@@H](Cc1c[nH]cn1)C(=O)N[C@@H](C)C(=O)N2) [cyclo(-Tyr-His-Ala-Cys-Trp-Gly-^DPro-Trp-Thr-Ile-Cys-Tyr-Trp-Lys-^DPro-Pro-)]	62 nM
cyclo(YHACWG[dP]WTICYQE[dP]P) (disulfide 4-11; SMILES CC[C@H](C)[C@@H]1NC(=O)[C@H]([C@@H](C)O)NC(=O)[C@H](Cc2c[nH]c3ccccc23)NC(=O)[C@H]2CCCN2C(=O)CNC(=O)[C@H](Cc2c[nH]c3ccccc23)NC(=O)[C@@H]2CSSC[C@H](NC1=O)C(=O)N[C@@H](Cc1ccc(O)cc1)C(=O)N[C@@H](CCC(N)=O)C(=O)N[C@@H](CCC(=O)O)C(=O)N1CCC[C@@H]1C(=O)N1CCC[C@H]1C(=O)N[C@@H](Cc1ccc(O)cc1)C(=O)N[C@@H](Cc1c[nH]cn1)C(=O)N[C@@H](C)C(=O)N2) [cyclo(-Tyr-His-Ala-Cys-Trp-Gly-^DPro-Trp-Thr-Ile-Cys-Tyr-Gln-Glu-^DPro-Pro-)]	63 nM
cyclo([Dab]HKCHG[dP]WTICYEK[dP]E) (disulfide 4-11; SMILES CC[C@H](C)[C@@H]1NC(=O)[C@H]([C@@H](C)O)NC(=O)[C@H](Cc2c[nH]c3ccccc23)NC(=O)[C@H]2CCCN2C(=O)CNC(=O)[C@H](Cc2c[nH]cn2)NC(=O)[C@@H]2CSSC[C@H](NC1=O)C(=O)N[C@@H](Cc1ccc(O)cc1)C(=O)N[C@@H](CCC(=O)O)C(=O)N[C@@H](CCCCN)C(=O)N1CCC[C@@H]1C(=O)N[C@@H](CCC(=O)O)C(=O)N[C@@H](CCN)C(=O)N[C@@H](Cc1c[nH]cn1)C(=O)N[C@@H](CCCCN)C(=O)N2) [cyclo(-Dab-His-Lys-Cys-His-Gly-^DPro-Trp-Thr-Ile-Cys-Tyr-Glu-Lys-^DPro-Glu-)]	144 nM
cyclo(YHACWG[dP]WTICYQA[dP]P) (disulfide 4-11; SMILES CC[C@H](C)[C@@H]1NC(=O)[C@H]([C@@H](C)O)NC(=O)[C@H](Cc2c[nH]c3ccccc23)NC(=O)[C@H]2CCCN2C(=O)CNC(=O)[C@H](Cc2c[nH]c3ccccc23)NC(=O)[C@@H]2CSSC[C@H](NC1=O)C(=O)N[C@@H](Cc1ccc(O)cc1)C(=O)N[C@@H](CCC(N)=O)C(=O)N[C@@H](C)C(=O)N1CCC[C@@H]1C(=O)N1CCC[C@H]1C(=O)N[C@@H](Cc1ccc(O)cc1)C(=O)N[C@@H](Cc1c[nH]cn1)C(=O)N[C@@H](C)C(=O)N2) [cyclo(-Tyr-His-Ala-Cys-Trp-Gly-^DPro-Trp-Thr-Ile-Cys-Tyr-Gln-Ala-^DPro-Pro-)]	76 nM
cyclo(YHACHG[dP]WTICYQE[dP]P) (disulfide 4-11; SMILES CC[C@H](C)[C@@H]1NC(=O)[C@H]([C@@H](C)O)NC(=O)[C@H](Cc2c[nH]c3ccccc23)NC(=O)[C@H]2CCCN2C(=O)CNC(=O)[C@H](Cc2c[nH]cn2)NC(=O)[C@@H]2CSSC[C@H](NC1=O)C(=O)N[C@@H](Cc1ccc(O)cc1)C(=O)N[C@@H](CCC(N)=O)C(=O)N[C@@H](CCC(=O)O)C(=O)N1CCC[C@@H]1C(=O)N1CCC[C@H]1C(=O)N[C@@H](Cc1ccc(O)cc1)C(=O)N[C@@H](Cc1c[nH]cn1)C(=O)N[C@@H](C)C(=O)N2) [cyclo(-Tyr-His-Ala-Cys-His-Gly-^DPro-Trp-Thr-Ile-Cys-Tyr-Gln-Glu-^DPro-Pro-)]	132 nM
